Data on 116 sequences can be found in the supplement of paper PMC10724198.

± gives the standard deviation of the averaged measurements.
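Also: PSI is a weighted mean of sequencing reads over stability bins, variants kept only with over 10 reads, mCherry proximal and sfGFP distal, peptide attached via GGGS linker.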

This data set concerns Saccharomyces cerevisiae. As to the kind of experiment: protein stability index of tFT-peptide fusion (C-terminal peptide) (PSI (0-1 scale)); higher = more stable (slower turnover). The following applies: genetic background: wild type; temperature: 30 C.
ILHCVCFGLFHF yielded a protein stability index of 0.614 ± 0.014.

ILPFSGLAFFLP had a protein stability index of 0.677 ± 0.039.

Turning to IMGGPGLTALSR, the protein stability index is 0.729 ± 0.061.

On to IMGLGLASAKRM, for which the protein stability index amounted to 0.677 ± 0.073.

Regarding IMGRRGEDGVID, the protein stability index worked out at 0.682 ± 0.061.

For the sequence INGTEYVVGRKA, the protein stability index came to 0.686 ± 0.0097.

Regarding INKKETKKNKIK, the protein stability index was determined as 0.612 ± 0.073.

The sequence INTVGRCCGLVE returned a protein stability index of 0.681 ± 0.043.

Take IPFPSSARLRAD: the protein stability index worked out at 0.708 ± 0.02.

Consider IPGVPEGLRSLH, for which the protein stability index was determined as 0.629 ± 0.06.

Sequence IPRGTTTFLLEV gave a protein stability index of 0.638 ± 0.041.

The sequence IPRRSSIPDKTP registered a protein stability index of 0.718 ± 0.045.

Take IPSSMWHICCLC: the protein stability index is 0.538 ± 0.025.

For the sequence IQGRFYPLLEAH, the protein stability index was 0.606 ± 0.032.

IQYGSSVRREGR registered a protein stability index of 0.72 ± 0.22.

In turn, IRIDRNLNSLGK returned a protein stability index of 0.685 ± 0.017.

IRIKLTYYKSYL came in with a protein stability index of 0.678 ± 0.13.

As for IRKIIHIDNGNT, the protein stability index is 0.741 ± 0.096.

IRKNLIPLTIFT registered a protein stability index of 0.538 ± 0.028.

Regarding IRMEYVNTVINK, the protein stability index turned out to be 0.642 ± 0.049.

With IRPPVLTDAIHS, the protein stability index worked out at 0.708 ± 0.013.

For IRPSVCQAPDMR, the protein stability index was found to be 0.679 ± 0.042.

Sequence IRRGRQGGEHEK yielded a protein stability index of 0.702 ± 0.097.

Turning to IRSLSGPLSRTF, the protein stability index turned out to be 0.673 ± 0.076.

With IRYEVVDLEPRG, the protein stability index was found to be 0.693 ± 0.15.

ISEIRHSGFTRL: the protein stability index worked out at 0.741 ± 0.084.

Sequence ISGTDGVRHFLG returned a protein stability index of 0.662 ± 0.018.

On to ISIFTCLGRFSL, for which the protein stability index is 0.677 ± 0.037.

ISLRELNEVCRS showed a protein stability index of 0.668 ± 0.029.

In the case of ISQNPYNGTGQE, the protein stability index turned out to be 0.6886 ± 0.001.

As for ISTSPRCCPRLL, the protein stability index came out at 0.714 ± 0.023.

As to ITNKKKIKDKQT, the protein stability index amounted to 0.593 ± 0.033.

On to ITQTRGPRPLAH, for which the protein stability index was 0.7471 ± 0.0043.

In turn, ITSFIKSDKSSK came in with a protein stability index of 0.696 ± 0.029.

ITTNTESSRQSY registered a protein stability index of 0.702 ± 0.014.

As to ITVFRAEVRTKK, the protein stability index came out at 0.6846 ± 0.0054.

The sequence ITVWVLSDGIGV had a protein stability index of 0.5619 ± 0.002.

Consider IVDYSRYVIGLE, for which the protein stability index was found to be 0.663 ± 0.0095.

With IVFTPPSVTFHA, the protein stability index amounted to 0.825 ± 0.22.

Take IVLGPHNFLTIL: the protein stability index came to 0.676 ± 0.018.

Consider IVLSRVHLLVGP, for which the protein stability index is 0.5798 ± 0.0032.

For IVPFLLFYSPPA, the protein stability index was found to be 0.719 ± 0.055.

For IVRNDRSGPWGD, the protein stability index turned out to be 0.756 ± 0.12.

Turning to IYFRILKKRSKT, the protein stability index is 0.639 ± 0.02.

Consider IYGCISVYYSSG, for which the protein stability index was 0.562 ± 0.014.

As for IYSPLSPSTAPA, the protein stability index was determined as 0.664 ± 0.012.

Consider IYSTRWRRGRVE, for which the protein stability index was 0.699 ± 0.044.

For KAAQREVDLLVT, the protein stability index was determined as 0.668 ± 0.021.

KAHSFAYVINCL displayed a protein stability index of 0.589 ± 0.045.

KAKKLRKKNENK came in with a protein stability index of 0.671 ± 0.038.

On to KAKKNNERAKHR, for which the protein stability index stood at 0.681 ± 0.029.

In turn, KDATVILSSRRR yielded a protein stability index of 0.745 ± 0.024.

KDCGSVRQGLRY: the protein stability index was determined as 0.754 ± 0.04.

In turn, KDGAGGDWDVGE returned a protein stability index of 0.6948 ± 0.006.

As to KDINNQKKETQR, the protein stability index turned out to be 0.683 ± 0.047.

For KDIVSQEEHAPL, the protein stability index came out at 0.678 ± 0.036.

In the case of KDNAPTLPQGGN, the protein stability index was 0.662 ± 0.06.

KDTGTNKASRGQ displayed a protein stability index of 0.67 ± 0.014.

On to KEATTEKNTTRA, for which the protein stability index was found to be 0.6895 ± 0.0023.

As to KEILATRQKSST, the protein stability index came to 0.738 ± 0.04.

In turn, KEKSSKRSGKTE registered a protein stability index of 0.644 ± 0.15.

Sequence KENKKKNKKYKK came in with a protein stability index of 0.785 ± 0.16.

KERYKNHGQKAS returned a protein stability index of 0.683 ± 0.017.

In turn, KETNIKKRRARG returned a protein stability index of 0.6458 ± 0.0021.

As for KFKGIKEINNGN, the protein stability index was 0.633 ± 0.074.

In turn, KGGCPTASARVL gave a protein stability index of 0.5735 ± 0.0011.

In turn, KGGKVGRAGEKG came in with a protein stability index of 0.644 ± 0.098.

Consider KGIGWSSDGGMG, for which the protein stability index was determined as 0.67 ± 0.02.

As for KGKGREEEDISK, the protein stability index worked out at 0.674 ± 0.015.

As to KGKKTTKTDAKK, the protein stability index is 0.612 ± 0.061.

KGKRGKKKEESN displayed a protein stability index of 0.6515 ± 0.0039.

In turn, KGNDQVLRLFIR registered a protein stability index of 0.73 ± 0.021.

Take KGNRGKDAVKTE: the protein stability index stood at 0.7556 ± 0.004.

Regarding KGRFILKCKDIF, the protein stability index is 0.637 ± 0.071.

KGRFTKTKLRVH yielded a protein stability index of 0.5602 ± 0.0013.

On to KGRGEVGTRRYG, for which the protein stability index was 0.638 ± 0.079.

Sequence KGRSKHIKGKRR came in with a protein stability index of 0.743 ± 0.033.

With KGTKIGRPVRVI, the protein stability index was 0.689 ± 0.016.

Sequence KHLNFNTNKRKD returned a protein stability index of 0.651 ± 0.0093.

KHPMRLPHTRRA: the protein stability index amounted to 0.706 ± 0.045.

With KHTNWGKQLIMT, the protein stability index was 0.5631 ± 0.0016.

KICHTKKKNKKK returned a protein stability index of 0.769 ± 0.046.

With KIGSQLAGYKIS, the protein stability index is 0.595 ± 0.063.

KIKKKKKNTKTK yielded a protein stability index of 0.666 ± 0.047.

For KIKKRRKKDNKR, the protein stability index is 0.7145 ± 0.0013.

Turning to KIKSKKEKPQVT, the protein stability index was determined as 0.687 ± 0.023.

Take KIKTKKGTKKRK: the protein stability index was 0.677 ± 0.039.

Regarding KIRINKKVKNKK, the protein stability index came to 0.671 ± 0.005.

The sequence KITLKSNKTTDN yielded a protein stability index of 0.741 ± 0.018.

The sequence KIVCTLGPAFAR registered a protein stability index of 0.672 ± 0.051.

KIVKNQKKKKQR showed a protein stability index of 0.732 ± 0.019.

Take KKARGYTLEQRR: the protein stability index turned out to be 0.736 ± 0.051.

On to KKEEEGNREEKL, for which the protein stability index was found to be 0.689 ± 0.038.

For the sequence KKEEEGRTKECR, the protein stability index is 0.694 ± 0.093.

Regarding KKEEKKKNKNDR, the protein stability index came out at 0.679 ± 0.027.

For KKEISEKTNKKL, the protein stability index was 0.69 ± 0.012.

Sequence KKEKKVKKNRKR registered a protein stability index of 0.729 ± 0.021.

For KKEKQKKKIKTK, the protein stability index worked out at 0.703 ± 0.055.

For the sequence KKERTGTKKKKK, the protein stability index was found to be 0.698 ± 0.048.

KKESNFVKKKEI yielded a protein stability index of 0.741 ± 0.024.

KKGIKEYYKVQK registered a protein stability index of 0.775 ± 0.16.

Regarding KKHEKVKSNTKR, the protein stability index came out at 0.666 ± 0.03.

As for KKIYEKRKKLRK, the protein stability index is 0.756 ± 0.057.

In turn, KKKDRENIKNKI returned a protein stability index of 0.7151 ± 0.0068.

Sequence KKKEENGGRGDE came in with a protein stability index of 0.7008 ± 0.0041.

KKKKDQQQELKN registered a protein stability index of 0.657 ± 0.032.

In turn, KKKKEKKETKKK gave a protein stability index of 0.67 ± 0.028.

In turn, KKKKEKKYKERY showed a protein stability index of 0.721 ± 0.13.

For KKKKGKKRRTRK, the protein stability index is 0.72 ± 0.041.

For the sequence KKKKKIKKKHNK, the protein stability index was 0.6859 ± 0.001.

Regarding KKKKKKGKGAKT, the protein stability index amounted to 0.617 ± 0.011.

KKKKKKKKKKTR came in with a protein stability index of 0.6407 ± 0.0016.

Sequence KKKKKKKKTNKK had a protein stability index of 0.762 ± 0.084.

Regarding KKKKKKKRNKHN, the protein stability index worked out at 0.706 ± 0.048.

Sequence KKKKKKNKKTKN displayed a protein stability index of 0.711 ± 0.045.

On to KKKKKKQQKKRK, for which the protein stability index came out at 0.686 ± 0.039.
